Results: paper PMC7133447
pKd: −log10 of the molar value.

Key:
[1] = molecular target: T1, epithelial cell adhesion molecule (EpCAM) on MDA-MB-231 cells (human) (UniProt P16422); assay: flow cytometry (MDA-MB-231 cells); settings: Live-cell flow cytometry, 5e5 cells, 0-400 nM aptamer, PBS with 10% FCS, 0.1 mg/mL tRNA, 0.1 mg/mL BSA, 60 min, 37 C, aptamer folded in PBS with 5 mM MgCl2
T1 sequence: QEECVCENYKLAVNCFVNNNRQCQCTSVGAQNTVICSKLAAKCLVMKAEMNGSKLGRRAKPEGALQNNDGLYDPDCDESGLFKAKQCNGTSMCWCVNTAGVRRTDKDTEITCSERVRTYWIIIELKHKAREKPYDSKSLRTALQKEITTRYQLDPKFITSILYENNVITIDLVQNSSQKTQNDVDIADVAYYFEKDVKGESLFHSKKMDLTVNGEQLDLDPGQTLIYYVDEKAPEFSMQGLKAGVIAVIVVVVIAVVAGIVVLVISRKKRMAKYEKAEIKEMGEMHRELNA

[2] = molecular target: transferrin receptor (TfR) on bEnd.3 cells (mouse) (UniProt Q62351); assay: flow cytometry (bEnd.3 cells); settings: Live-cell flow cytometry, 5e5 cells, 0-400 nM aptamer, PBS with 10% FCS, 0.1 mg/mL tRNA, 0.1 mg/mL BSA, 60 min, 37 C, aptamer folded in PBS with 5 mM MgCl2
Chain of transferrin receptor (TfR) on bEnd.3 cells (mouse) (Q62351 whole entry): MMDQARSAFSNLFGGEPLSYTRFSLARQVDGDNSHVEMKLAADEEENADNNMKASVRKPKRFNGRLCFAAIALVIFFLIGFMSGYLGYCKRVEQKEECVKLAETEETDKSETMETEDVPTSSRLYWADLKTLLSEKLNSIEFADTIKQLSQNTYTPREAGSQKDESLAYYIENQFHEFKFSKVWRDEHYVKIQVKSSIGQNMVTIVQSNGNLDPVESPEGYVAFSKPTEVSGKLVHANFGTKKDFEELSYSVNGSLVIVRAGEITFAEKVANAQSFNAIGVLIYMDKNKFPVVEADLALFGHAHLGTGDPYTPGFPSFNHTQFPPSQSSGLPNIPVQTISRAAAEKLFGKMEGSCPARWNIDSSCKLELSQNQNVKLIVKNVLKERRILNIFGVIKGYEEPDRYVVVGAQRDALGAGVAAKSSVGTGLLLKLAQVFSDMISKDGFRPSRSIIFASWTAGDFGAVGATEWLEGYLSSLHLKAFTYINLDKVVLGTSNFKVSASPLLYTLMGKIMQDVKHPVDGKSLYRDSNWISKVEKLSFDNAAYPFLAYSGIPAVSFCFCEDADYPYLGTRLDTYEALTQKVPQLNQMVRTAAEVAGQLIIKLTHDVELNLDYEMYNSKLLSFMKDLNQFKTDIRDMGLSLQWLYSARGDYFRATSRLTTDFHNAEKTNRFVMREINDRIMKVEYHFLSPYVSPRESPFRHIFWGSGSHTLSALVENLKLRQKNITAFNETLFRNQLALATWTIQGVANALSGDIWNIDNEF

[3] = molecular target: transferrin receptor (TfR) / EpCAM on 4T1 cells (mouse) (UniProt Q62351); assay: flow cytometry (4T1 cells); settings: Live-cell flow cytometry, 5e5 cells, 0-400 nM aptamer, PBS with 10% FCS, 0.1 mg/mL tRNA, 0.1 mg/mL BSA, 60 min, 37 C; aptamer folded in PBS with 5 mM MgCl2
Chain of transferrin receptor (TfR) / EpCAM on 4T1 cells (mouse) (Q62351 whole entry): as above

[4] = doxorubicin intercalated (non-covalent, about 2-3 per aptamer)

Sequence “GCGCGTGCACGCGCTAACGGATTCCTTTTCCGT [TENN-DOX]” has a pKd [1, 4] of less than 5.00 and a pKd [2, 4] of 6.06.
For “GCGCGGTACCGCGCTAACGGAGGTTGCGTCCGT [TEPP]”, the pKd ([1]; cited from earlier work) is given as 7.07, the pKd ([2]; cited from earlier work) is given as 6.96 and the pKd [3] is given as 7.56.
In the case of “GCGCGTGCACGCGCTAACGGATTCCTTTTCCGT [TENN]”, the pKd ([1]; cited from earlier work) is given as less than 5.00 and the pKd ([2]; cited from earlier work) is given as less than 5.00.
Sequence “GCGCGGTACCGCGCTAACGGAGGTTGCGTCCGT [TEPP-DOX]” has a pKd [1, 4] of 6.27 and a pKd [2, 4] of 6.92.
